Measurements as given in patent US20170101442A1 (published 2017).

How the values were obtained:
[1] = target: 422; experiment: cell binding (labeled cells %); HSC-T6 cells; apparent Kd
[2] = target: 515; experiment: as above

- Kd [1]: 402 µM
- Kd [2]: 57.6 µM
B1: HSC-T6 cells (receptor)
chain: QAVDLDALCSYTWEAVDSKNNAVYKINPCGHVDNPRCGPTSAVCMCDLKSENCRSVGDSLLRSSAKSLLEFNTTTGCQPSEHRIQTSITFLCGKTLGTPEFVTATDCVHYFEWRTTAACKKDIFKADKEVPCYVFDDKLQKHDLNPLIKLNGGYLVDDSDADASLFINVCRDIDSLRDPSTQLRVCPAGTAACLLKGNQAFDVGRPKEGLKLLSKDRLVLTYVKEEGEKPDFCNGHSPAVTVTFVCPSERREGTIPKLTAKSNCRYEVEWITEYACHRDYLESETCSLSSEQHDIAIDLSPLAQHEEGSPYVADGGEYRFFMNVCGDTKVSLCNKEAAVCQEKKVDSTQVKIAGRHQNQTLRYSDGDLTLIYSGGDECSSGFQRMSVINFECNKTAGQDGRGEPVFTGEVDCTYFFTWDTKYACVKEKEDLLCGAIDGKKRYDLSVLARHSESEQNWEAVDGSQAESEKRNFFINVCHRVLQAGKAKNCPEGAAVCAVDKSGSKNLGKFVSSPTKEKGHIQLSYSDGDDCGNDKKITTNITFVCKPGDLESAPVLRAAGPDGCSYEFEWHTAAACVLSQTEGENCTVLDAQAGFSFDLSLLTKKNGAYKVETDKYDFYINVCGPVSVNLCQSNSGACQVAKSGKSWNLGLSNTKLTYYDGMIQLSYRNGTLYNNEKHTPRSTLITFLCDRDAGVGFPEYQEEDNSTYNFRWYTSYACPEEPLECMVTDPSMMEQYDLSSLVKFEGGRGGNWYAMENSREHFTRRKYYLNVCRPLNPVPGCDRYASACQMKYENNEGSLAETVAISNLGVAKTGPVVEESGSLLLEYVNGSACTTSDGRLTTYSTRIHLVCGRGTMNSHPIFTFNWECVVSFLWNTEAACPIQTITDSDQACSIRDPNSGFVFNLSPLNYSQGHMVLGIGKTFVFNICGTMPACGTVAGKPALGCEAETKIKDIKDLKPERPVGMEKSLQLSAEGFLTLTYKGSSPSDRGTAFIIRFICNGDIYPGTPKFLHQDIDSARGIRNTFFEFETALACIPSVVDCQVTDPAGNEYDLSALSMVRKPWTAVDTSVHGKKRRFYLSVCTPLPYIPGCDGIAMGSCMVSEDKSQNLGVVQISPQATGNGSLSILYVNGDRCGNQRYSTRIVFECAQTSGSPMFQLLNNCEYVFVWRTVEACPVVREEGDNCQVKDPRHGNLYDLKPLALNDTIISAGEYTYYFRVCGKLSLDVCSAHDGSKAVSSCQEKKGPQGFQKVAGLLNQKLTFENGLLKMNYSGGDTCHKVYQRSTTIYFYCDRTTQKPVFLKETLDCSYLFEWRTQYACPPFNVTECSIQDEAGNSIDLSSLSRYSDNWEAVTRTGATEHYLINVCKSLSPQAGTDPCPPEAAVCLLDGSKPVNLGRVRDGPQWTAGVTVLKYVDGDLCPDKIRKRSTIIRFTCSDSQVNSRPLFISAVQDCEYTFSWPTPAACPVKSNIHDDCQVTNPSTGHLFDLSSLSGKAGITASYSEKGMVFMSICEENVNCSPGVGACFGQTRISVGQASKRLSYKDQVLQLVYENGSPCPSKSGLRYKSVISFVCRPEAGPTNRPMLISLDKQSCTLFFSWHTPLACEQATECTVRNGSSIIDLSPLIHRTGGYEAYDESEDDTSDTTPDFYINICQPLNPMHGVPCPAGASVCKVPVDGPPIDIGRVTGPPIFNPVANEVYLNFESSTPCLADKYMNYTSLIAFHCRRGISMVTRDAHTYSIGVCTTAADLDQEGCKDGGVCLLSGSKGASFGRLASMQLDYRHQDEAVILSYVNGDPCPPETEDGEPCVFPFIYKGETYDECVLEGRAKLWCSKTANYDRDHEWGFCRPSTLSICAKEYIKVPWTALREPAFARRVPLVKSRFWGLFILKNWKS
